Assay [1] has as its target T1, NR2B/RasGRF1 native complex (Rattus norvegicus, UniProt P28818+Q00960).
T1 construct: from tissue; host or cells: P2 microsomes of 6- to 8-week-old rat brain
As to the kind of experiment: competition co-immunoprecipitation of native NR2B-RasGRF1 complexes from rat brain microsomes. The assay is classed as binding. Conditions: NusA fusion proteins 3-5 μM; 6- to 8-week-old rat brains. Here is the method: Transfected cells were solubilized in lysis buffer (100 mM Tris-Cl [pH 8.5], 500 mM NaCl, 1% Triton X-100) supplemented with corn plete protease inhibitor (Roche) and immunoprecipitated with NR2B (Santa Cruz, sc-9057), NR1, or NR2A (Chemicon) antibody (5 μg/ml), washed with lysis buffer, separated on SDS gel, and blotted on PVDF. Blots were probed with anti-RasGRF1 (Santa Cruz) and the appropriate NR subunit antibody. 6- to 8-week-old rat brain P2 microsomes were isolated and solubilized as described (Luo, J., et al. (1997) Mol. Pharmacol. 51, 79-86). 80 μg of solubilized protein were immunoprecipitated with NR2B, RasGRF1, or pooled rabbit IgG, and immunoprecipitated proteins were probed on Western blot with RasGRF1 and NR2B antibodies. All immunoprecipitation experiments were only taken as valid if repeated 3-5 times with similar results. Routine negative controls with antigen pre-absorption were carried out for antibodies used in immunoprecipitation experiments. […]
For in vitro binding experiments, equimolar amounts of in vitro translated ^35S-labeled proteins (calculated from radioactivity of the excised protein band and cysteine content in the specific fragment) were incubated with a 3-fold molar excess of translated RasGRF1 for 30 min at 30° C., diluted with RIPA buffer, and immunoprecipitated with anti-HA-agarose (Santa Cruz). […]

Another assay deals with hippocampal neurons. Nature of the assay: Assay I: glutamate excitotoxicity in primary cultures of dissociated hippocampal neurons. It counts as cell-based, rat. The settings on record: 20 minute exposure to Glutamate (100 μM) and Glycine (10 μM); expression in neurons; n=5. Here is the method: (A) Survival of hippocampal neurons in culture exposed to Glutamate (100 μM) and Glycine (10 μM) for a 20 minute period. 14 div neuronal cultures were transfected with GFP, NR2B-BD or RasGRF1-BD 24 hours prior to analysis. The neuronal cultures were then incubated with glutamate for 20 minutes, washed with culture media and returned to the incubator for an additional 24 hours. The cells were then fixed with PFA and stained with a neuronal specific antibody, Map2. […] (B) Percentage of propidium iodide-resistant (surviving) neurons in organotypic hippocampal slices (P5+7div) expressing GFP, NR2B-BD or […] in control conditions and after 20 minutes exposure to NMDA (50 μM). The fluorescence of propidium iodide (PI) was measured 24 hours later. PI enters damaged cells and is a convenient tool to determine neuronal cell death. For PI staining, the slices were incubated in culture medium containing 0.1 mg/ml PI for 2 h. GFP, NR2B-BD and […] were expressed using the SindBis expression system. Mean±SEM. N=3.
Assay I: primary cultures of dissociated hippocampal neurons (FIG. 7(A)). This method may be used to analyze the mechanisms of glutamate-dependent excitotoxicity (see e.g., Medina, et al., Eur J Neurosci. (1999) 11(4): 1167-78). Briefly, neuronal cell death was induced by a 20 minute exposure to Glutamate (100 μM) and Glycine (10 μM). […]

T1 sequence (Q00960 27-1482): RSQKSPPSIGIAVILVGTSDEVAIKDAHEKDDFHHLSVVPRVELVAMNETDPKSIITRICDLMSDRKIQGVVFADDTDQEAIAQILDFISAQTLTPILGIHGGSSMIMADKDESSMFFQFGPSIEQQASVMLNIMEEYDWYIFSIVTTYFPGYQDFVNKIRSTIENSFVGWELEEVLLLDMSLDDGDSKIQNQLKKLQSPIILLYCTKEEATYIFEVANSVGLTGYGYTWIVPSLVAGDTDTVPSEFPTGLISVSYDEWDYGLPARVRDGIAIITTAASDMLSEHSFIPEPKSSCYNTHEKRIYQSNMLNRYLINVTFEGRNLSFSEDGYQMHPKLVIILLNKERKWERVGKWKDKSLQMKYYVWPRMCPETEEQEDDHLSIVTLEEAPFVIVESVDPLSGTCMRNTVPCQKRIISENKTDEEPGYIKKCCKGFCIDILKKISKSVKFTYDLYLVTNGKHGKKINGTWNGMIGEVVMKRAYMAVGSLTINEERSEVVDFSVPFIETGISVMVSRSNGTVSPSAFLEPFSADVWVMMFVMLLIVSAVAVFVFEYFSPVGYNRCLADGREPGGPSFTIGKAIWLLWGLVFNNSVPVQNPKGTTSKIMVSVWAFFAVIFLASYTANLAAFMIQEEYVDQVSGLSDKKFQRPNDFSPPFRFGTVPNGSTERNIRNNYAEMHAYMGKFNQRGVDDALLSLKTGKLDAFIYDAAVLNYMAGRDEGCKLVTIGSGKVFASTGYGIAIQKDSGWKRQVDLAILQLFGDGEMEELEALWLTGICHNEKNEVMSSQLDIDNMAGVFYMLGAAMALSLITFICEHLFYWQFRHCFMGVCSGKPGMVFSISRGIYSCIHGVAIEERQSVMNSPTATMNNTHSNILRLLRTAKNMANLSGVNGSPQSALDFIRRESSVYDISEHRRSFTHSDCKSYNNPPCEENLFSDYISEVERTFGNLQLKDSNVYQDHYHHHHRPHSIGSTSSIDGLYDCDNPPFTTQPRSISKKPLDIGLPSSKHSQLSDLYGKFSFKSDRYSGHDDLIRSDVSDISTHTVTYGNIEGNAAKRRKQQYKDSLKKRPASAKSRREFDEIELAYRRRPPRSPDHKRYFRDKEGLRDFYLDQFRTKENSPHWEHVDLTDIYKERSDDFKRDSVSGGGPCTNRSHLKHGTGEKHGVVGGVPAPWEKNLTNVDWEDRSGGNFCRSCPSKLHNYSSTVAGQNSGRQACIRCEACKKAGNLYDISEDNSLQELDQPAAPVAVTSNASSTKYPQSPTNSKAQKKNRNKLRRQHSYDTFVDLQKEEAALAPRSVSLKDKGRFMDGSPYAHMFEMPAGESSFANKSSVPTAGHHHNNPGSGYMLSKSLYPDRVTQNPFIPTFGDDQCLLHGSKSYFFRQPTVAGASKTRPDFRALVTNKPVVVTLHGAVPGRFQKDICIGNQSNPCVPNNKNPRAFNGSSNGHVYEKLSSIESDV
T1 sequence (P28818 whole entry): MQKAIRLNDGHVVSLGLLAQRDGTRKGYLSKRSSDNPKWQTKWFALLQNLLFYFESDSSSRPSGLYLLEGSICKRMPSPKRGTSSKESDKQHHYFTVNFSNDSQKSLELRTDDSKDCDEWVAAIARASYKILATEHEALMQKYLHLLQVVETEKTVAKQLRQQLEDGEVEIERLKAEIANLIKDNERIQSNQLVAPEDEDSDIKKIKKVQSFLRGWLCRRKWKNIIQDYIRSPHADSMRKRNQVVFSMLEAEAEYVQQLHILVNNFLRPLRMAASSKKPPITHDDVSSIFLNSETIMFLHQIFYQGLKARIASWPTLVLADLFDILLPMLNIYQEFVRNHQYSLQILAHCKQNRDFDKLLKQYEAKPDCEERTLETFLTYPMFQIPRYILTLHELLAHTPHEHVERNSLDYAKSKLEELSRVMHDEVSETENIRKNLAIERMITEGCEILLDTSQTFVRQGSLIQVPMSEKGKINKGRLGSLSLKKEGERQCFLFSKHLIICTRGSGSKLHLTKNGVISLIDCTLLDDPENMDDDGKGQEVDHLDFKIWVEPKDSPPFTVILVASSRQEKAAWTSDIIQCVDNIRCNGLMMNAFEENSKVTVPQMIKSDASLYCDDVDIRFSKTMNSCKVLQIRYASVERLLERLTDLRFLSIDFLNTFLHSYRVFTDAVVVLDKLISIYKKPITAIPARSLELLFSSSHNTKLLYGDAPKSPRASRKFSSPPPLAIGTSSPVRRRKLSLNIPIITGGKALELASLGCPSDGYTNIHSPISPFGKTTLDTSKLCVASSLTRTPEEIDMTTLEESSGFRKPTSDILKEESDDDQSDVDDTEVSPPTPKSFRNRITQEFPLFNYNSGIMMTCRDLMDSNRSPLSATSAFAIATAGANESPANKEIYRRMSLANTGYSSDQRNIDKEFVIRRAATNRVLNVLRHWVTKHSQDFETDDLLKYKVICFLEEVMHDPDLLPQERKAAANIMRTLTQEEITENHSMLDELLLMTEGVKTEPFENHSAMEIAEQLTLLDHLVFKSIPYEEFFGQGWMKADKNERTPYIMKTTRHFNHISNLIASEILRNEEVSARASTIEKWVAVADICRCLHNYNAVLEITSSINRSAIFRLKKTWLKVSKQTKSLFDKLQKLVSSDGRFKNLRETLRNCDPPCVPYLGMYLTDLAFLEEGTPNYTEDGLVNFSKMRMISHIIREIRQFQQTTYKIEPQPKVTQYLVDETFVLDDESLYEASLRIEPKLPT

B1: NR2B-BD: peptide of amino acids 886-1310 of the NR2B C-terminal domain that binds RasGRF1; used as NusA or EGFP fusion (protein)
chain: SPTATMNNTHSNILRLLRTAKNMANLSGVNGSPQSALDFIRRESSVYDISEHRRSFTHSDCKSYNNPPCEENLFSDYISEVERTFGNLQLKDSNVYQDHYHHHHRPHSIGSTSSIDGLYDCDNPPFTTQPRSISKKPLDIGLPSSKHSQLSDLYGKFSFKSDRYSGHDDLIRSDVSDISTHTVTYGNIEGNAAKRRKQQYKDSLKKRPASAKSRREFDEIELAYRRRPPRSPDHKRYFRDKEGLRDFYLDQFRTKENSPHWEHVDLTDIYKERSDDFKRDSVSGGGPCTNRSHLKHGTGEKHGVVGGVPAPWEKNLTNVDWEDRSGGNFCRSCPSKLHNYSSTVAGQNSGRQACIRCEACKKAGNLYDISKDNSLQELDQPAAPVAVTSNASSTKYPQSPTNSKAQKKNRNKLRRQHSYDTFVDL
modifications: left off: small tags and cut ends
notes: used as NusA or EGFP fusion
In the case of B1, the “co-immunoprecipitation of NR2B and RasGRF1” value in assay [1] is recorded as “completely blocked”. For the same molecule, the “decrease of neuronal cell death induced by glutamate and glycine” value with hippocampal neurons came out at 47±2%.

These data come from patent US7425614B2, “Neuroprotective therapeutics preventing ERK/MAPK activation through the NMDA receptor” (Children's Medical Center Corporation, priority 2003, dated 2008).
